The values that follow come from patent US8088412B2, “Intralymphatic chemotherapy drug carriers” (priority 2008, dated 2012).

In data set [1] the test system is MDA-MB-468LN human breast cancer cells. As to the kind of experiment: Tumor response, breast lymphatic tumor xenograft. Type of data set: in vivo, Nude nu/nu mice. On the procedure: Nude nu/nu mice were implanted with 1×10^6 cells (MDA-MB-468LN human breast cancer cells) into the mammary fatpad, after approximately 4 weeks a 100-200 mm^3 tumor had developed in the axillary lymph node package. Animals were randomly divided into four treatment groups of five animals each: intravenous saline, s.q. HA, intravenous cisplatin, or s.q. HA-cisplatin. At this point, doses were administered to the animals. In the HA-cisplatin and the HA groups, HA-cisplatin (3.3 mg/kg based on Pt-content) or HA (3.3 mg/kg) was dissolved in 100 mcL saline was injected subcutaneously peritumorally. […] In all study groups, a second dose was administered after 1 week. Tumor volumes were measured weekly using calipers and the formula: Volume=0.52×(width^2*length). Animals were euthanized when the tumor volume exceeded […] or the body score index fell below 2.

Data set [2] is described as follows: Long-term toxicology: pathological examination (H&E) at 30 days. Format: in vivo, Sprague-Dawley rats. The following applies: for lymphoid tissue histology (H&E) / underlying tissue at injection site: 30 days post injection; for brain tissue histology (H&E) / kidney tissue histology (H&E) / liver tissue histology (H&E): 30 days post single injection. On the procedure: Each animal was administered a single bolus dose at the beginning of the 30-day study period. […] In order to reduce the stress to animals, subjects were housed in metabolic cages for 12 hrs to collect approximately 5 ml of urine and then returned to cages with bedding until the next collection period. Urine samples were centrifuged at 17,000×g for 5 mins and stored in −80° C. freezer until creatinine analysis.
The animals were euthanized at the end of the study (30 days) and the liver, bilateral kidneys, spleen, lungs, heart, right (ipsilateral) and left (contralateral) axillary nodes, and brain were excised intact and stored in 80% alcoholic formalin solution overnight for fixation before slide mounting. Mounting using haematoxylin & eosin (H&E) staining were conducted by Veterinary Lab Resources (Kansas City, Kans.). The pathological examination was performed by a blinded board-certified veterinarian pathologist (University of Kansas Medical Center, Kansas City, Kans.).

Data set [3] in a line: Long-term toxicology: urine creatinine. The following applies: 3.3 mg/kg subcutaneous, single dose. Format: in vivo, Sprague-Dawley rats. On the procedure:
Each animal was administered a single bolus dose at the beginning of the 30-day study period. […] Urine samples were centrifuged at 17,000×g for 5 mins and stored in −80° C. freezer until creatinine analysis.
Urine creatinine was analyzed using the QuantiChrom™ Creatinine Assay Kit according to the manufacturer's instructions (BioAssay Systems, Hayward, Calif.). Creatinine concentration of the sample was calculated as (ODSAMPLE 5-ODSAMPLE 1) (ODSTD 5-ODSTD 1)×[STD] (mg/dL). ODSAMPLE5 ODSAMPLE1, ODSTD5, and ODSTD1 are OD510nm values of sample and standard at 5 min and 1 min, respectively.

Data set [4] relates to MDA-1986. The data set can be described thus: MTS cell viability assay, 72 hours. As to conditions: 10 nM to 100 micromolar. Format: cell-based, human. On the procedure:
(§1) To evaluate the anticancer, specifically antiproliferative, effects of HA-cisplatin compared to standard CDDP in vitro in two human head and neck squamous cell carcinoma cell lines (JMAR and MDA-1986) a standard MTS assay was performed as per the manufacturer's specified protocol.
(§2) Once 75% confluent, cells were trypsinized (0.25% trypsin), counted and plated in 96-well microtiter plates (Costar, Cambridge, Mass., USA) (1×10^3 cells/well) in 100 μL of growth media. After an overnight attachment period, cells were exposed to varying concentration of […] for 3 days. All studies were performed in triplicate and repeated at least three times independently. After the 3-d treatment period, the number of viable cells was determined using a colorimetric Cell Proliferation assay (CellTiter96 Aqueous Nonradioactive Cell Proliferation assay; Promega, Madison Wis., USA), which measures the bioreduction of the MTS (3-[4,5-dimethylthiazol-2yl]-5-[3-carboxymethoxyphenyl]-2-[4-sulfophenyl]-2H tetrazolium) by dehydrogenase enzymes of metabolically active cells into soluble formazon product, in the presence of the electron coupling reagent PMS (phenazine methosulfate). To perform the assay, 20 μL of combined MTS/PMS solution containing 2 mg/mL MTS and 150 μM PMS in buffer (0.2 g/L KCl, 8.0 g/L NaCl, 0.2 g/L KH2PO4, 1.15 g/L, […] CaCl2-2H2O, […], MgCl2.6H2O, pH 7.35) was added to each well and then after 3 hr of incubation at 37° C. in a humidified 5% CO2 atmosphere, absorbance was measured at 490 nm in microplate reader. Triplicate wells with predetermined cell numbers were subjected to the above assay in parallel with the test samples to normalize the absorbance readings; this also provided internal confirmation that the assay was linear over the range of absorbance and cell numbers measured. Data was plotted as a function of % viability from controls (cell viability) vs. drug concentration (x-axis).
(Formazan colour is commonly taken as a measure of viable cells.)

Data set [5] deals with JMAR. The data set can be described thus: MTS cell viability assay, 72 hours. As to conditions: 10 nM to 100 micromolar. Type of data set: cell-based, human. On the procedure:
as §1, §2

Entries after “also recorded” stand apart in the source; their conditions may differ.

In the case of [PtCl(H2O)(NH3)2]OOCO-HA [HA-cisplatin], in data set [1] (3.3 mg/kg (Pt) subcutaneously peritumorally, second dose after 1 week), the “tumor growth delay compared to negative control group” value is given as 5 weeks. Further, in data set [1] (3.3 mg/kg subcutaneously peritumorally, two doses), the “toxicity in treated tumor-bearing animals” value was “no toxicity was observed”. Moreover, the “lymphoid tissue histology (H&E)” value in data set [2] (1 mg/kg subcutaneous) is on record as “normal findings”; in data set [2] (3.3 mg/kg subcutaneous), “Very mild changes; also recorded: normal findings”. Moreover, the “underlying tissue at injection site” value in data set [2] (1 mg/kg subcutaneous) and in data set [2] (3.3 mg/kg subcutaneous) was “normal findings” each time. Moreover, the “brain tissue histology (H&E)” value in data set [2] (1 mg/kg subcutaneous) and in data set [2] (3.3 mg/kg subcutaneous) was “normal findings” throughout. Moreover, the “kidney tissue histology (H&E)” value in data set [2] (1.0 mg/kg subcutaneous) is “normal appearance except for minimal renal tubular cell swelling and degeneration”; in data set [2] (3.3 mg/kg subcutaneous), “fairly normal appearance except for minor foci of tubular cell necrosis at the corticomedullary junction”. Also, the “liver tissue histology (H&E)” value in data set [2] (1.0 mg/kg subcutaneous) is reported as “Very mild changes; also recorded: normal appearance”; in data set [2] (3.3 mg/kg subcutaneous) it was “Mild degeneration with some sinusoidal necroses; also recorded: fairly normal appearance except for very mild degeneration”. In addition, the “animals diagnosed with mild renal necrosis” value in data set [2] (high dose (3.3 mg/kg) subcutaneous, 30 days, of 5) came to 20%. The “animals with renal necrosis” value in data set [2] (low dose (1.0 mg/kg) subcutaneous, 30 days) is reported as “none”. Besides, the urine creatinine levels entry in data set [3] is “remained near pre-dosing levels”. Further, the “IC50 level compared with CDDP” value is “no significant difference” in data set [4], “very similar” in data set [4] (listed as HA-Cisplatin), “no significant difference” in data set [5] and “very similar” in data set [5] (listed as HA-Cisplatin).
